Results published in US20060121465A1, “Sgk and nedd used as diagnostic and therapeutic targets” (priority 2002, published 2006).
Substitutions are numbered along the chain they refer to. One block for each molecule: values may come before it.

Biological target: T1, Sglt1 (Homo sapiens, UniProt P13866)
T1 construct: expressed in transfected cells; host or cells: Xenopus laevis oocytes injected with in vitro synthesized cRNA
T1 sequence (P13866 1-664): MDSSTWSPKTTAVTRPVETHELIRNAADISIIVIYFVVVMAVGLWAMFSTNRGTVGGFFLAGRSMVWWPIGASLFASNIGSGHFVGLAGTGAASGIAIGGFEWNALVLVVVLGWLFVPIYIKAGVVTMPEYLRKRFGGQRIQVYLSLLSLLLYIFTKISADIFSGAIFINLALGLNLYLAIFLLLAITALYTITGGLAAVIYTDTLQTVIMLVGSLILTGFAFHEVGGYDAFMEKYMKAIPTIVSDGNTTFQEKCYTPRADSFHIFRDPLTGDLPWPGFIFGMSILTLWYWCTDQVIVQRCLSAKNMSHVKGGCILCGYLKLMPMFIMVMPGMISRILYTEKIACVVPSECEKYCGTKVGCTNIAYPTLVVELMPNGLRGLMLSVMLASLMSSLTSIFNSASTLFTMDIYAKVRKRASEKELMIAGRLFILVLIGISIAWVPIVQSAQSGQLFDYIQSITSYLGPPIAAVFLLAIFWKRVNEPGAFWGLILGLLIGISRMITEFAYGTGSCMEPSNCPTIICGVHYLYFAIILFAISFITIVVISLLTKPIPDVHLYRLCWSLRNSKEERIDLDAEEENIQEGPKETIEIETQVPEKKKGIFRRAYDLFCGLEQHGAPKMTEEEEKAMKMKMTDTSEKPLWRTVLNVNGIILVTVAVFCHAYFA
Assay: Two-electrode voltage clamp of glucose-induced currents in Xenopus laevis oocytes expressing Sglt1
Assay type: cell-based
Details: for effect on currents induced by glucose (in words): oocytes expressing Sglt1; for stimulation of glucose transport by additional coexpression: further series of experiments (FIG. 5)
Excerpt: cRNAs encoding wild-type Sgk1 [Waldegger S, Barth P, Raber G, Lang F: Cloning and characterization of a putative human serine/threonine protein kinase transcriptionally modified during anisotonic and isotonic alterations of cell volume. […] Biochem J. 1999; 339: 319-28], wild-type Sgk3 and PKB [Kobayashi T, Deak M, Morrice N, Cohen P. Characterization of the structure and regulation of two novel isoforms of serum- and glucocorticoid-induced protein kinase. Biochem J. 1999; 334: 189-97], consitutively active ^T308D,S473DPKB [Alessi D R, Cohen P. Mechanism of activation and function of protein kinase B. Curr. Opin Genet Dev. 1998; 8: 55-62], wild-type Nedd4-2 [Debonneville C, Flores S Y, Kamynina E, Plant P J, Tauxe C, Thomas M A, Munster C, Chraibi A, Pratt J H, Horisberger J D, Pearce D, Loffing J, Staub O. Phosphorylation of Nedd4-2 by Sgk1 regulates epithelial Na(+) channel cell surface expression. EMBO J. 2001; 20: 7052-7059] and wild-type Sglt1 [Hediger M A, Coady M J, Ikeda T S, Wright E M. Expression cloning and cDNA sequencing of the Na^+/glucose co-transporter. Nature. 1987; 330: 379-381] were synthesized in vitro [Wagner C A, Friedrich B, Setiawan I, Lang F, Bröer S: The use of Xenopus laevis oocytes for the functional characterization of heterologously expressed membrane proteins. Cell Physiol Biochem 2000; 10: 1-12]. Dissection of the Xenopus laevis ovaries, and collection and treatment of the oocytes, have already been described in detail [Wagner C A, Friedrich B, Setiawan I, Lang F, Broer S: The use of Xenopus laevis oocytes for the functional characterization of heterologously expressed membrane proteins. Cell Physiol Biochem 2000; 10: 1-12]. The oocytes were injected with 5 ng of human sglt1, 7.5 ng of human sgk1, ^K127Nsgk1, ^S422Dsgk1, sgk3, PKB or ^T308D,S473DPKB, and/or with 5 ng of Xenopus nedd4-2. Control oocytes were injected with water. Electrophysiological experiments were carried out at room temperature for 3 days after the respective cRNAs had been injected. The currents which were induced by the extracellular administration of 20 mM or 5 mM glucose were measured using a two-electrode voltage clamp [Wagner C A, Friedrich B, Setiawan I, Lang F, Broer S: The use of Xenopus laevis oocytes for the functional characterization of heterologously expressed membrane proteins. Cell Physiol Biochem 2000; 10: 1-12] and taken as a measure of the glucose transport. The data were filtered at 10 Hz and analyzed using a MacLab Digital to Analog Converter and corresponding software (AD Instruments, Castle Hill, Australia). The control bath solution (ND 96) contained 96 mM NaCl, 2 mM KCl, 1.8 mM CaCl2, 1 mM MgCl2 and 5 mM HEPES, pH 7.4. All the substances were used at the stated concentrations. The final solutions were titrated with HCl or NaOH to the stated pH or pH 7.4. The flow rate of the superfusion solution was 20 ml/min and achieved complete change of solution within 10 s.
For the calculations, the data were quoted as arithmetic means±SEM. n is the number of oocytes investigated. All the experiments were carried out in at least three different groups of oocytes. Qualitatively similar data were obtained in all the repeats. The results were tested for significant differences using Student's t test. Only results giving P<0.05 were made use of as being statistically significant.

[1] = 20 mM glucose, coexpressed with Sglt1, increase vs oocytes expressing Sglt1 on its own
[2] = 20 mM glucose, coexpressed with Sglt1 and Nedd4-2
[3] = coexpressed with Sglt1 and Nedd4-2
[4] = further series of experiments (FIG. 5, procedure as in FIG. 4), coexpressed with Sglt1
[5] = 5 mM glucose, coexpressed with Sglt1 and Nedd4-2
[6] = 5 mM glucose, coexpressed with Sglt1 (FIG. 4)

glucose-induced current increased by coexpression [1]: 117.4±15.8%
glucose-induced current higher than in oocytes expressing Sglt1 on its own [2]: 106.5±18.2%
Molecule: ^T308D,S473DPKB: constitutively active protein kinase B mutant, expressed from injected cRNA
effect on currents induced by glucose (in words) (20 mM glucose, figure legends): stimulated the currents and reversed the effect of Nedd4-2

stimulation of glucose transport by additional coexpression [3]: 107±20%
glucose-induced current increased by coexpression [4]: 101±18%
Molecule: PKB: wild-type protein kinase B, expressed from injected cRNA

glucose-induced current increased by coexpression [1]: 123.6±15.0%
glucose-induced current higher than in oocytes expressing Sglt1 on its own [2]: 112.4±19.4%
stimulation of glucose transport by additional coexpression [3]: 114±26%
glucose-induced current increased by coexpression [4]: 117±16%
B1: Sgk3: wild-type Sgk isoform 3, expressed from injected cRNA (protein, UniProt Q96BR1 1-496, looked up)
Serine/threonine-protein …: MQRDHTMDYKESCPSVSIPSSDEHREKKKRFTVYKVLVSVGRSEWFVFRRYAEFDKLYNTLKKQFPAMALKIPAKRIFGDNFDPDFIKQRRAGLNEFIQNLVRYPELYNHPDVRAFLQMDSPKHQSDPSEDEDERSSQKLHSTSQNINLGPSGNPHAKPTDFDFLKVIGKGSFGKVLLAKRKLDGKFYAVKVLQKKIVLNRKEQKHIMAERNVLLKNVKHPFLVGLHYSFQTTEKLYFVLDFVNGGELFFHLQRERSFPEHRARFYAAEIASALGYLHSIKIVYRDLKPENILLDSVGHVVLTDFGLCKEGIAISDTTTTFCGTPEYLAPEVIRKQPYDNTVDWWCLGAVLYEMLYGLPPFYCRDVAEMYDNILHKPLSLRPGVSLTAWSILEELLEKDRQNRLGAKEDFLEIQNHPFFESLSWADLVQKKIPPPFNPNVAGPDDIRNFDTAFTEETVPYSVCVSSDYSIVNASVLEADDAFVGFSYAPPSEDLFL
effect on currents induced by glucose (in words) (20 mM glucose, figure legends): stimulated the currents and reversed the effect of Nedd4-2

glucose-induced current more than in oocytes injected with Sglt1 and Nedd4-2 mRNA [5]: 126±23%
glucose-induced current more than in oocytes only injected with Sglt1 [5]: 61±21%
glucose-induced current (5 mM glucose, coexpressed with Sglt1 and Nedd4-2 (FIG. 4)): 60.5±9.9 nA
glucose-induced current increased by coexpression [1]: 81.3±19.0%
glucose-induced current higher than in oocytes expressing Sglt1 on its own [2]: 34.8±11.8%
B2: Sgk1: wild-type serum- and glucocorticoid-dependent kinase 1, expressed from injected human sgk1 cRNA (protein, UniProt O00141 1-431, looked up)
Serine/threonine-protein …: MTVKTEAAKGTLTYSRMRGMVAILIAFMKQRRMGLNDFIQKIANNSYACKHPEVQSILKISQPQEPELMNANPSPPPSPSQQINLGPSSNPHAKPSDFHFLKVIGKGSFGKVLLARHKAEEVFYAVKVLQKKAILKKKEEKHIMSERNVLLKNVKHPFLVGLHFSFQTADKLYFVLDYINGGELFYHLQRERCFLEPRARFYAAEIASALGYLHSLNIVYRDLKPENILLDSQGHIVLTDFGLCKENIEHNSTTSTFCGTPEYLAPEVLHKQPYDRTVDWWCLGAVLYEMLYGLPPFYSRNTAEMYDNILNKPLQLKPNITNSARHLLEGLLQKDRTKRLGAKDDFMEIKSHVFFSLINWDDLINKKITPPFNPNVSGPNDLRHFDPEFTEEPVPNSIGKSPDSVLVTASVKEAAEAFLGFSYAPPTDSFL
effect on currents induced by glucose (in words) (20 mM glucose, figure legends): stimulated the currents and reversed the effect of Nedd4-2

glucose-induced current (Iglc) [6]: 65.4±10.6 nA
increase of Iglc by coexpression [6]: 77±23%
effect on currents induced by glucose (in words) (5 mmol glucose, FIG. 4 legend): significantly increased
glucose-induced current increased by coexpression [1]: 72.4±9.1%
glucose-induced current higher than in oocytes expressing Sglt1 on its own [2]: 59.2±19.8%
stimulation of glucose transport by additional coexpression [3]: 48±11%
glucose-induced current increased by coexpression [4]: 55±12%
B3: ^S422DSgk1: constitutively active Sgk1 mutant (serine 422 to aspartate), expressed from injected cRNA (protein, UniProt O00141 1-431, looked up, variant S422D)
Serine/threonine-protein …: B2 Serine/threonine-protein … with S422D
effect on currents induced by glucose (in words) (20 mM glucose, figure legends): stimulated the currents and reversed the effect of Nedd4-2

change of substrate-induced current (20 mM glucose, coexpressed with Sglt1, signed change vs Sglt1 alone): −2.0±5.3%
glucose-induced current lower than in oocytes expressing Sglt1 on its own [2]: 54.9±9.7%
B4: ^K127NSgk1: inactive Sgk1 mutant, expressed from injected cRNA (protein, UniProt O00141 1-431, looked up, variant K127N)
Serine/threonine-protein …: B2 Serine/threonine-protein … with K127N

stimulation of glucose transport by additional coexpression [3]: no significant effect
glucose-induced current increased by coexpression [4]: no statistically significant effect
B5: Sgk2: isoform of Sgk, coexpressed in oocytes (protein, UniProt Q9HBY8 1-367, looked up)
Serine/threonine-protein …: MNSSPAGTPSPQPSRANGNINLGPSANPNAQPTDFDFLKVIGKGNYGKVLLAKRKSDGAFYAVKVLQKKSILKKKEQSHIMAERSVLLKNVRHPFLVGLRYSFQTPEKLYFVLDYVNGGELFFHLQRERRFLEPRARFYAAEVASAIGYLHSLNIIYRDLKPENILLDCQGHVVLTDFGLCKEGVEPEDTTSTFCGTPEYLAPEVLRKEPYDRAVDWWCLGAVLYEMLHGLPPFYSQDVSQMYENILHQPLQIPGGRTVAACDLLQSLLHKDQRQRLGSKADFLEIKNHVFFSPINWDDLYHKRLTPPFNPNVTGPADLKHFDPEFTQEAVSKSIGCTPDTVASSSGASSAFLGFSYAPEDDDILDC
